Reference: article PMC6684798, “Structural basis for the target specificity of actin histidine methyltransferase SETD3” (Nature Communications, 2019)
Like-named read-outs stand apart in the source and are kept apart here.

What was measured:
SETD3 = biological target: T1, SETD3 (Homo sapiens, UniProt Q86TU7); assay: Ki measurement of sinefungin against SAM for SETD3 (Supplementary Fig. 2a, b); type: biochemical
T1 construct: GST (cleaved yes); made in house; host or cells: Escherichia coli BL21(DE3) CodonPlus
T1 sequence (Q86TU7 1-594): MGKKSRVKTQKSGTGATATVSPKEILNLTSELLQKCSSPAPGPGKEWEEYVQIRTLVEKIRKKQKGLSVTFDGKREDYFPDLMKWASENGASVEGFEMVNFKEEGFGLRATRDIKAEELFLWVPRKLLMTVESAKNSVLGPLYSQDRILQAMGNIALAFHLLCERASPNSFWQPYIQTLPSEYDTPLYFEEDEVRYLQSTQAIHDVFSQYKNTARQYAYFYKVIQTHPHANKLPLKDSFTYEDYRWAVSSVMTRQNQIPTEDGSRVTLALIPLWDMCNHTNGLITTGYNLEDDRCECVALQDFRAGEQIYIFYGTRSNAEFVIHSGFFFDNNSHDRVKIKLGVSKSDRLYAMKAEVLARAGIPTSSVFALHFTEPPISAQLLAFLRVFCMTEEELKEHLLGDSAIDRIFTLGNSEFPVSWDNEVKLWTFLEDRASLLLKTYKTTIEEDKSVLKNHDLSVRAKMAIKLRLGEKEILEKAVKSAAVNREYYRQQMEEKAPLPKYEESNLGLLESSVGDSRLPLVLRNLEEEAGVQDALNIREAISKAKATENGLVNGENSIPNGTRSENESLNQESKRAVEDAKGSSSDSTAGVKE
Method: Recombinant human SETD3 (pXC2003) was expressed as a GST-fusion[22] in Escherichia coli BL21(DE3) CodonPlus^TM cells (Stratagene). The SETD3 mutants at residue 255 (N255A; pXC2093 and N255V; pXC2094) were generated with Q5 Site-Directed Mutagenesis Kit (New England Biolabs), confirmed by sequencing and the same protocol for expression and purification were followed. Briefly, the purification was conducted in a BIO-RAD NGC^TM system using a three-column chromatography of glutathione-sepharose, HiTrap Q-HP and Superdex 200. The GST tag was removed by PreScisson Protease (purified in-house). The purified SETD3 proteins at a concentration ~25–35 mg/ml were kept at −80 °C in storage buffer for future use [20 mM Tris (pH 8.0), 200 mM NaCl, 5% glycerol, and 0.5 mM tris (2-carboxyethyl) phosphine (TCEP)].
For Ki measurement of sinefungin (Supplementary Fig. 2a, b), a reaction mixture contained 20 mM Tris/HCl (pH 8.0), 50 mM NaCl, 0.1 mg/ml BSA, 1 mM DTT, 0.18 µM SETD3, 40 µM H73 (residues 66–80) peptide and first incubated with varied concentration of sinefungin (0–100 µM) for 30 min, reactions were then started by addition of 2–8 µM SAM. After 30 min at room temperature, the reactions were terminated by the addition of TFA to 0.1% (v/v). […]

[1] = biological target: Recombinant human SETD3 (pXC2003), wild type (human) (UniProt Q86TU7)
[2] = biological target: Recombinant human SETD3 (pXC2003), wild type (human) (UniProt Q86TU7); remark: listed apart in the source

In the case of `Nc1ncnc2c1ncn2[C@@H]1O[C@H](C[C@@H](N)CC[C@H](N)C(=O)O)[C@@H](O)[C@H]1O` [sinefungin, adenosyl ornithine], the “mode of inhibition of SETD3” value (SETD3; Lineweaver-Burk, H73(66–80) 40 µM, 0–100 µM sinefungin, 2–8 µM SAM, pH 8.0) was “SAM-competitive inhibitor” and the “support of methyl transfer / inhibition” value (SETD3; Supplementary Fig. 2) was “does not support the methyl transfer, and thus functions as an inhibitor”.
Compound “actin H73 peptide (residues 66-80) (from UniProt P60709 66-80)” has a Km of steady-state methylation kinetics (MTase-Glo), pH 8.0, room temperature [1] of 21 μM.
With “actin H73K peptide (residues 66-80) (from UniProt P60709 66-80)” the Km of steady-state methylation kinetics (MTase-Glo), pH 10.5, 37 °C [1] was 430 μM.
In the case of “actin H73K peptide (residues 66-88) (from UniProt P60709 66-88)”, the Km of steady-state methylation kinetics (MTase-Glo), pH 10.5, 37 °C [2] was 5.2 μM.
